Test results as given in patent US20240101645A1 (HENRY M JACKSON FOUNDATION FOR THE ADVANCEMENT OF MILITARY …, published 2024).

T1: HCoV-HKU1 spike antigens (bead panel) (HCoV-HKU1, UniProt Q5MQD0 13-1300)
T1 sequence: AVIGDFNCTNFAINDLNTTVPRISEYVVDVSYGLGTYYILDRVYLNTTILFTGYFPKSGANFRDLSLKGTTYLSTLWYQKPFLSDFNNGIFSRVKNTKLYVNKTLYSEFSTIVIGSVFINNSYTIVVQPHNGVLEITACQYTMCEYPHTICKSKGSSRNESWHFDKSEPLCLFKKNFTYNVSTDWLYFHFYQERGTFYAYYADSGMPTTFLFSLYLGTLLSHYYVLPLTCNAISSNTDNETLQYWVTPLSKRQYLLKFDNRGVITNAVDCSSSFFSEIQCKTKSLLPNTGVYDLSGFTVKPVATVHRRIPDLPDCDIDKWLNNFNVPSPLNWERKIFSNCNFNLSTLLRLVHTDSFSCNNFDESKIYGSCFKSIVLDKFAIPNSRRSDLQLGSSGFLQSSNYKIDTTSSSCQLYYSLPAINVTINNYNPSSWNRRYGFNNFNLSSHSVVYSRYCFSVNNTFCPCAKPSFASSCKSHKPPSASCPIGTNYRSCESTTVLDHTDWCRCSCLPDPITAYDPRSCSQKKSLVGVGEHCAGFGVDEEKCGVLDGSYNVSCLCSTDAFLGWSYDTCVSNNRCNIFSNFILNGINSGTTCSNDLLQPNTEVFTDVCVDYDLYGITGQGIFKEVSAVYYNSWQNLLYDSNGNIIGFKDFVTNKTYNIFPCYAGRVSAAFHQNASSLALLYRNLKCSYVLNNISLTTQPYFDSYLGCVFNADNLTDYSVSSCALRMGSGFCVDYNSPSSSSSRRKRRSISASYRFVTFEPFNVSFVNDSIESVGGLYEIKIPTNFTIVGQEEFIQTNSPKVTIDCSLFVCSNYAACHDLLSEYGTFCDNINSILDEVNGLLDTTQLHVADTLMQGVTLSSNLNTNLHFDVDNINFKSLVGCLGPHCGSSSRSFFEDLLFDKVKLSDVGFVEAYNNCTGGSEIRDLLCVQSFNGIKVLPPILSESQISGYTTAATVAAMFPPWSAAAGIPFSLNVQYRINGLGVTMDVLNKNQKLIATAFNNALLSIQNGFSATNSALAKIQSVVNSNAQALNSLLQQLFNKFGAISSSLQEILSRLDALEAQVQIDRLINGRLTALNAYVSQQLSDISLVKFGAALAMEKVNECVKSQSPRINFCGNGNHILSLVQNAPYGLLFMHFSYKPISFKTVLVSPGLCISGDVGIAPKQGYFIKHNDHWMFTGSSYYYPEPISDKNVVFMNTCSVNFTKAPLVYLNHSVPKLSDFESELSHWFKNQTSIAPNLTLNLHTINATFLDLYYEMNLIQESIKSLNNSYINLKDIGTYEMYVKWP

T2: HCoV-NL63 spike antigens (bead panel) (HCoV-NL63, UniProt Q6Q1S2 19-1296)
T2 sequence: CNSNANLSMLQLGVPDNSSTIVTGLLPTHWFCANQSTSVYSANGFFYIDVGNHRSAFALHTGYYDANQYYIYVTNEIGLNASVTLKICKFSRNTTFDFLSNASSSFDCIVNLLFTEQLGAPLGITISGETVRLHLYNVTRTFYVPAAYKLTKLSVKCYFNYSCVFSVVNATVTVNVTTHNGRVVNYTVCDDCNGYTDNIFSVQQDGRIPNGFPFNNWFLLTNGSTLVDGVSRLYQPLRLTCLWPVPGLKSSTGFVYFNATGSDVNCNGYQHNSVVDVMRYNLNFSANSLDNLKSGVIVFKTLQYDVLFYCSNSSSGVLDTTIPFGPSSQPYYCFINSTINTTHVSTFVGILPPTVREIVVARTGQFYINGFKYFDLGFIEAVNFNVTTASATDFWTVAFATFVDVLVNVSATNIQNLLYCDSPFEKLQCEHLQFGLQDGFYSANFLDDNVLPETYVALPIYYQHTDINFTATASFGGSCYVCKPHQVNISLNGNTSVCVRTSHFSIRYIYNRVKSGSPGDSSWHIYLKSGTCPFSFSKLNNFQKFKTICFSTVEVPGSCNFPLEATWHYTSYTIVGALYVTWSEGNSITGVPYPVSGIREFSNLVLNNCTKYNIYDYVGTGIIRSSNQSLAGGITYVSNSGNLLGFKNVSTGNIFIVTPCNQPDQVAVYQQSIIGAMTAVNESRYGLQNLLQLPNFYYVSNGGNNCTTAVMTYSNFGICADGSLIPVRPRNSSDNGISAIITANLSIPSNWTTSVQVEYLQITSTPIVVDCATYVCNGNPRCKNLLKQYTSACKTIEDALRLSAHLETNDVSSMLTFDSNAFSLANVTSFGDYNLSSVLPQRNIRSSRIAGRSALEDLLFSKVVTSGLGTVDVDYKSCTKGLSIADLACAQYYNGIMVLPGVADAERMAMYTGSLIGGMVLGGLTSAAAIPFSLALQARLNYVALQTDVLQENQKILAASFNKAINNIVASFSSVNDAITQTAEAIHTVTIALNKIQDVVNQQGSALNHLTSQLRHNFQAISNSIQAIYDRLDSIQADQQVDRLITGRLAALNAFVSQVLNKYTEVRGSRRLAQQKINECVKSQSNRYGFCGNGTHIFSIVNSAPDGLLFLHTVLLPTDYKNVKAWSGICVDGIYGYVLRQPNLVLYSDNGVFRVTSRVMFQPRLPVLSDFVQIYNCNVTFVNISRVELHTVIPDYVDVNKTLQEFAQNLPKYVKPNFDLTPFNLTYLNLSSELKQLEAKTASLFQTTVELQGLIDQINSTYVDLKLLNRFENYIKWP


Columns and labels:
[1] = biological target: T1, HCoV-HKU1 spike antigens (bead panel); experiment: multiplex bead assay
[2] = biological target: T2, HCoV-NL63 spike antigens (bead panel); experiment: multiplex bead assay

Binder | binding result [1] | binding result [2]
COV_2172 (SEQ ID NO:872/877) (antibody, V domains shown) VH: EVQLVESGGGVVQPGRSLRLSCAPSGFTFSTYAMHWVRQAPGKGLEWVAVISYDGSIKYYADSVKGRFTISRDNTMNTVFLQMNSLRAEDTAVYFCAKGGERWELFTSFDYWGQGTQVTVSS VL: QSALTQPRSVSGSPGQSVTISCTGTSSDVGGYNYVSWYQQHPGKAPKLMIYDVSKRPSGVPDRFSGSKSGNTASLTISGLQAEDEADYYCCSYAGSYTFVFGGGTKLTVLG | no binding | no binding
COV_2025 (antibody, V domains shown, human IgG1) VH: QVHLVQSGAEVKKPGASVKVSCKVSGYTLVELSVHWVRQAPAKGLEWIGGFDPEDGETIYAQKFQGRVTMTEDTSTDTAYMELTNLRSEDTAVYYCVTSQPFVSPNWFDPWGQGTLVTVSS VL: QSALTQPASVSGSPGQSITISCTGTSRDVGAYNYVSWYQQHPGKAPKLMIYEVTTRPSGVSNRFSGSKSGNTASLTISGLQAEDEADYYCSSYTGSRTLVFGTGTKVTVL | no binding | no binding
COV_3077 (antibody, V domains shown, human IgG1) VH: QVQLQESGPGLVKPSETLSLTCAVSGYSISSGYYWGWIRQPPGKGLEWIGSIYHSGSTYYNPSLKSRVTISVDTSKNQFSLKLSSVTAADTAVYYCARALYDAFDIWGQGTMVTVSS VL: not shown | no binding | no binding
COV_2123 (antibody, V domains shown, human IgG1) VH: EVQLVESGGGVVQPGRSLRLSCAASGFTFSSYAMHWVRQAPGKGLEWVAVLSYDGSNKYNADSVKGRFTISRDNSKNTLYLQMNSLRVEDTAMYYCARDGVSVTMVRGVIGPLCDYWGQGTLVTVSS VL: not shown | no binding | no binding
COV_2054 (antibody, V domains shown, human IgG1) VH: EVQLVESGGGVLQPGRSLRLSCAASGFTFNNYALHWVRQAPGKGLEWVAVISYDGSSKYYADSVRGRLTISRDNSRNTLYLQMNSLRPEDTAIYYCARDGDGLWLGESFYFDDWGQGTLVTVSS VL: DIQMTQSPSTLSASVGDRVIITCRASQSISSWLAWYQQKPGKAPKLLIYEASTLQSGVPSRFSGSGSGTEFTLTISSLQPDDSATYYCQQYNSYPVHFSQGTKLEIK | no binding | no binding
COV_2143 (antibody, V domains shown, human IgG1) VH: EVQLVESGGGVVQPGRSLRLSCAASGFTFNSFAMLWVRQAPGKGLEWVALFSYDGSNKYYADSVKGRFTISRDNSKNTLYLQMNNLRAVDTAVYYCARASPYDINGYYLHRIAFDIWGQGTMVTVSS VL: QSVLMQPPSVSGAPGQRVTISCTGSSSNIGAGYDVHWYQQLPGTAPKLLMYGNSNRPSGVPDRFSGSKSGTSASLAITGLQAEDEADYYCQSYDSGLSGWVFGGGTKLTVLG | no binding | no binding
COV_2174 (antibody, V domains shown, human IgG1) VH: EVQLAESGGGLVKPGGSLRLSCAASGFTFSDYYMSWIRQAPGKGLEWVSYISSSGSTIYYADSVKGRFTISRDNAKNSLYLQMNSLRAEDTAVYYCARDWSVVVVPAAPAVDVWGQGTTVTVSS VL: DIQMTQSPSSLSASVGDRVTITCRASQGISNYLAWFQQKPGKAPKSLIYAASSLQSGVPSKFSGSGSGTDFTLTISSLQPEDFATYYCQQYNSYPLTFGGGTKVEIKR | no binding | no binding
COV_2028 (antibody, V domains shown, human IgG1) VH: QVQLQESGPGLVKPSGTLSLTCVVSGGSISSSNWWSWVRQPPGKGLEWIGEIYHSGSTNYNPSLKSRVTISVDKSKNQFSLRLTSVTAADTAVYYCARGWNYDYWGQGTLVTVSS VL: QSALTQPASVSGSPGQSITIACTGTSSDVGSYNLVSWYQQHPGKAPKLMIYEVSKRPSGLSNRFSGSKSGNTASLTISGLQAEDEADYYCYSYAGSSTWVFGGGTKLTVL | no binding | no binding
COV_2039 (antibody, V domains shown, human IgG1) VH: QVQLVQSGAEVKKPGASVKVSCKVSGYMLIELSMHWVRQAPGKGLEWMGGFDPEDAETIYAQEFQGRVTMTEDTSTDTAYMELSSLRSEDTAVYYCTTGPAVTNRPADYWGPGTLVTVSS VL: QSVLTQPPSVSGAPGQRVTISCTGSSSNIGASYDVHWYQQLPGTAPKLLIYANSNRPSGVPDRFSGSKSGTSASLAITGLQAEDEADYYCQSYDSSLSYSVVFGGGTKLTVL | no binding | no binding
COV_2014 (antibody, V domains shown, human IgG1) VH: QVQLVQSGAEVKKPGASVKVSCKVSGYTLTELSMHWVRQAPGKGLEWMGGFDPEDGETIYAQKFQGRVTMTEDTSTDTAYMELSSLRSEDTAVYYCATGKINYYDSSGYYGTFDYWGQGTLVTVSS VL: AIQLTQSPSSLSASVGDRVTITCRASQGISSYLAWYQQKPGKAPKLLIYAASTLQSGVPSRFSGSGSGTDFTLTISSLQPEDFATYYCQQLNSYHLTFGQGTRLEIK | no binding | no binding
COV_2093 (antibody, V domains shown, human IgG1) VH: EVQLVESGGGLVQPGGSLRLSCAASGFMFNRFWMSWVRQAPGKGLEWVTNIKQDGSEKNYVDSVKGRFTISRDNAKNSLYLQMNSLRAEDTAVYYCARDGLYYDFRSPSPFYGMDVWGQGTTVTVSS VL: DIQMTQSPSSLSASVGDRVTITCRASQSISSYLNWYQHKSGKAPKLLIYAASRLQSGVPSRFSGSGSGTDFTLTIVSLQPEDLATYYCQQSYSTPRTFGGGTKVEIKR | no binding | no binding
COV_2037 (antibody, V domains shown, human IgG1) VH: QVQLVQSGAEVKKPGASVKVSCKVSGYTLTELSMHWVRQAPGKGLEWMGGFDPEDAETIYAQKFQGRVTMTEDTSTDTAYMELSSLRSEDTAVYYCATAGAITGTPTNYSYYYGMDFWGQGTTVTVSS VL: not shown | no binding | no binding
COV_2027 (antibody, V domains shown, human IgG1) VH: EVQLVESGGGLIQPGGSLRLSCAASGFSVSTNYMSWVRQAPGKGLEWVSIIYSGGGTYYADSVKGRFTISRDTSENTLYLQMNSLRAEDTAVYYCASFLVGATGQPWYWGQGTLVTVSS VL: not shown | no binding | no binding
